First the molecules themselves.
B1: Protein bicaudal D homolog 2 (Homo sapiens), Q8TD16 (parent)
chain: MSAPSEEEEYARLVMEAQPEWLRAEVKRLSHELAETTREKIQAAEYGLAVLEEKHQLKLQFEELEVDYEAIRSEMEQLKEAFGQAHTNHKKVAADGESREESLIQESASKEQYYVRKVLELQTELKQLRNVLTNTQSENERLASVAQELKEINQNVEIQRGRLRDDIKEYKFREARLLQDYSELEEENISLQKQVSVLRQNQVEFEGLKHEIKRLEEETEYLNSQLEDAIRLKEISERQLEEALETLKTEREQKNSLRKELSHYMSINDSFYTSHLHVSLDGLKFSDDAAEPNNDAEALVNGFEHGGLAKLPLDNKTSTPKKEGLAPPSPSLVSDLLSELNISEIQKLKQQLMQMEREKAGLLATLQDTQKQLEHTRGSLSEQQEKVTRLTENLSALRRLQASKERQTALDNEKDRDSHEDGDYYEVDINGPEILACKYHVAVAEAGELREQLKALRSTHEAREAQHAEEKGRYEAEGQALTEKVSLLEKASRQDRELLARLEKELKKVSDVAGETQGSLSVAQDELVTFSEELANLYHHVCMCNNETPNRVMLDYYREGQGGAGRTSPGGRTSPEARGRRSPILLPKGLLAPEAGRADGGTGDSSPSPGSSLPSPLSDPRREPMNIYNLIAIIRDQIKHLQAAVDRTTELSRQRIASQELGPAVDKDKEALMEEILKLKSLLSTKREQITTLRTVLKANKQTAEVALANLKSKYENEKAMVTETMMKLRNELKALKEDAATFSSLRAMFATRCDEYITQLDEMQRQLAAAEDEKKTLNSLLRMAIQQKLALTQRLELLELDHEQTRRGRAKAAPKTKPATPSL

Variants of B1 are the subject of test [1]. To be noted: with dc1i1_human DYNC1I1, O14576.
In test [2] the parent is B1. To be noted: with rab6a_human RAB6A.
Test [3] covers variants of B1. To be noted: with rab6a_human RAB6A. This is another data set of the same source.

Chain of dc1i1_human DYNC1I1, O14576 (O14576 whole entry): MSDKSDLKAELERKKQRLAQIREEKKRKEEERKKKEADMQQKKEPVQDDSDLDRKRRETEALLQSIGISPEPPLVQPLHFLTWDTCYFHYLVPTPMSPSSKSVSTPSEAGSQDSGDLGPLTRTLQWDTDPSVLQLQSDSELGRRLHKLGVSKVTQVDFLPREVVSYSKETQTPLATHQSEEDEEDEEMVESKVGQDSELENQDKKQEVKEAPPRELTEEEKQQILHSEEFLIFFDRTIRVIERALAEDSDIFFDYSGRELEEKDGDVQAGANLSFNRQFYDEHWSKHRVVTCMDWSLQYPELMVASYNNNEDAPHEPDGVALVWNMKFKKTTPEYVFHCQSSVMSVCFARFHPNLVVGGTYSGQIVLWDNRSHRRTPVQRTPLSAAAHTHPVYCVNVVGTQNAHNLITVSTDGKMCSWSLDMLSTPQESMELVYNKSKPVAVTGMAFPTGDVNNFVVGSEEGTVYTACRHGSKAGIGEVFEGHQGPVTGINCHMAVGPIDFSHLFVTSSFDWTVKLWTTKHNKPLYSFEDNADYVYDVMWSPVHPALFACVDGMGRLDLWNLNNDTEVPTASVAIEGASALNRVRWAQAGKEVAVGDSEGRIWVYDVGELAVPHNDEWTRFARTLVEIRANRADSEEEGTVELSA

Consider S107L, for which the “effect of a mutation on the interaction” value is “increasing interaction strength” in test [1], “with no effect” in test [2] and “decreasing interaction strength” in test [3].
As to E774G, the “effect of a mutation on the interaction” value in test [2] is on record as “decreasing interaction strength”.

The values above are taken from IntAct's records for PubMed 23664119.
